Assay results reported in PMC9142589, “Automated vitrification of cryo-EM samples with controllable sample thickness using suction and real-time optical inspection” (Nature Communications, 2022).

Target: the molecule itself
Assay: cryo-EM structure; single particle analysis; apoferritin at 2.5 µM in 150 mM NaCl, 25 mM Tris pH 7.5, 2 mM DTT; 91,000 particles; X-ray model PDB 6RJH fitted into the map

B1: Horse spleen apoferritin (natural protein)
chain: SQIRQNYSTEVEAAVNRLVNLYLRASYTYLSLGFYFDRDDVALEGVCHFFRELAEEKREGAERLLKMQNQRGGRALFQDLQKPSQDEWGTTLDAMKAAIVLEKSLNQALLDLHALGSAQADPHLCDFLESHFLDEEVKLIKKMGDHLTNIQRLVGSQAGLGEYLFERLTLK
notes: horse spleen apoferritin; the X-ray model of horse spleen apoferritin (PDB 6RJH) was fitted into the map; source: bought: Sigma (9013-31-4), purified by gel filtration (Superdex 200 Increase 3.2/300) immediately before vitrification
B1: binds.
